Assays:
Assay in all cases: holdup assay
Set-up in all cases: key: below the threshold = too weak to quantify, mostly under pKd 3.1 to 4
LNX1_2, Q8TBB1 = target: LNX1_2, Q8TBB1
HTRA1, Q92743 = target: HTRA1, Q92743
DLG2_2, Q15700 = target: DLG2_2, Q15700
SNTG1, Q9NSN8 = target: T1, SNTG1, Q9NSN8
T1 sequence (Q9NSN8 52-150, limits assumed, looked up): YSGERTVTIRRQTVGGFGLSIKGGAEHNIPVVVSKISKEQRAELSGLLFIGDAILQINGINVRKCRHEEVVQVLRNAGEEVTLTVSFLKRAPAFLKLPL

LIN7C, Q9NUP9 = target: T2, LIN7C, Q9NUP9
T2 sequence (Q9NUP9 88-185, limits assumed, looked up): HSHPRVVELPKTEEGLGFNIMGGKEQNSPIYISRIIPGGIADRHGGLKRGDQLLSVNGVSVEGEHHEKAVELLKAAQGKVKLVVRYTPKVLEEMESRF

GRID2IP_1, A4D2P6 = target: GRID2IP_1, A4D2P6
IL16_4, Q14005 = target: IL16_4, Q14005
TJP1_2, Q07157 = target: TJP1_2, Q07157
NHERF3_1, Q5T2W1 = target: T3, NHERF3_1, Q5T2W1
T3 sequence (Q5T2W1 4-100, limits assumed, looked up): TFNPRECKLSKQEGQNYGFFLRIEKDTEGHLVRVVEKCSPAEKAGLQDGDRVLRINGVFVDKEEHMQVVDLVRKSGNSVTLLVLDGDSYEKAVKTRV

GRIP1_3, Q9Y3R0 = target: T4, GRIP1_3, Q9Y3R0
T4 sequence (Q9Y3R0 247-346, limits assumed, looked up): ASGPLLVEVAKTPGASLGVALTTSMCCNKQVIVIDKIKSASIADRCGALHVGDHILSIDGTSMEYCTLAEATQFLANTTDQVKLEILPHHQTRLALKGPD

MAGI1_1, Q96QZ7 = target: MAGI1_1, Q96QZ7
GRIP2_6, Q9C0E4 = target: GRIP2_6, Q9C0E4
RHPN1, Q8TCX5 = target: T5, RHPN1, Q8TCX5
T5 sequence (Q8TCX5 508-602, limits assumed, looked up): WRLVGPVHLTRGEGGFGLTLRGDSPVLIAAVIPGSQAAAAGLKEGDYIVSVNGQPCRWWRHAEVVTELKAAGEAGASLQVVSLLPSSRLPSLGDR

SYNJ2BP, P57105 = target: T6, SYNJ2BP, P57105
T6 sequence (P57105 8-110, limits assumed, looked up): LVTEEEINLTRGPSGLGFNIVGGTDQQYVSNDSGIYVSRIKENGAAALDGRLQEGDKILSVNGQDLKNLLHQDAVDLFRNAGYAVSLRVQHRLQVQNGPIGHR

APBA2_1, Q99767 = target: T7, APBA2_1, Q99767
T7 sequence (Q99767 563-664, limits assumed, looked up): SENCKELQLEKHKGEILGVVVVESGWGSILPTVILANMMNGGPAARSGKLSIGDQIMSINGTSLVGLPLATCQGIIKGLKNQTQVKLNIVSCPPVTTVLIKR

ARHGEF12, Q9NZN5-2 = target: ARHGEF12, Q9NZN5-2
ARHGEF11, O15085 = target: T8, ARHGEF11, O15085
T8 sequence (O15085 42-136, limits assumed, looked up): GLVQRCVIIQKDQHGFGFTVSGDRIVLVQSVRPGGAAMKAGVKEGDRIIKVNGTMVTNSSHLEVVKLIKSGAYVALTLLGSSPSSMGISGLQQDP

PDZRN4_1, Q6ZMN7 = target: PDZRN4_1, Q6ZMN7
Inadl_10, Q8NI35 = target: Inadl_10, Q8NI35
GRIP1_2, Q9Y3R0 = target: T9, GRIP1_2, Q9Y3R0
T9 sequence (Q9Y3R0 145-248, limits assumed, looked up): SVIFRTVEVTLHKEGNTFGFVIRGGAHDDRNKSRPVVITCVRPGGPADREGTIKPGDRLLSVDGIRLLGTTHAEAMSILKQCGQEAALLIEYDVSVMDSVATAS

RADIL, Q96JH8 = target: T10, RADIL, Q96JH8
T10 sequence (Q96JH8 971-1071, limits assumed, looked up): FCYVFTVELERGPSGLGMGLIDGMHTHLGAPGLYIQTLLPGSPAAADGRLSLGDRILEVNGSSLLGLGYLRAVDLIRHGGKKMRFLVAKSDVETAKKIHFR

CASK, O14936 = target: CASK, O14936
TJP3_3, O95049 = target: T11, TJP3_3, O95049
T11 sequence (O95049 375-456, limits assumed, looked up): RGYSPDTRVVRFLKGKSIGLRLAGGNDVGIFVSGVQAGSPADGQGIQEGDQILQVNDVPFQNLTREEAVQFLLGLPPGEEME

Inadl_2, Q8NI35 = target: Inadl_2, Q8NI35
NHERF3_3, Q5T2W1 = target: T12, NHERF3_3, Q5T2W1
T12 sequence (Q5T2W1 238-333, limits assumed, looked up): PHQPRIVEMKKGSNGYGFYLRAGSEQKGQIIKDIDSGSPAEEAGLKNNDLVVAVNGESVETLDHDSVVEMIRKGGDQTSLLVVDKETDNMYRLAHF

DLG2_3, Q15700 = target: DLG2_3, Q15700
[1] = plain residues with an end cap or a label only (N-terminal biotin on a linker: (peg)3)
[2] = plain residues with an end cap or a label only (N-terminal biotin on a linker: ado-ado)

Chain of Inadl_2, Q8NI35 (Q8NI35 238-335): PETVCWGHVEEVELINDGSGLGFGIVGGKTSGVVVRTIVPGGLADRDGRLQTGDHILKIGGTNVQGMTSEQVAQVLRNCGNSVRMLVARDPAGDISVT
Chain of HTRA1, Q92743 (Q92743 360-477): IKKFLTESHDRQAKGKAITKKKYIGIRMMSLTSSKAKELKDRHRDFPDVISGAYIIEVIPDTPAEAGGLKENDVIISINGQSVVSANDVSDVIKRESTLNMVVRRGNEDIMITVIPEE
Chain of CASK, O14936 (O14936 487-570): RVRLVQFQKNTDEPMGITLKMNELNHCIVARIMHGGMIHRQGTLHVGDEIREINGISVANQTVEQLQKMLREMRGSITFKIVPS
Chain of GRIP2_6, Q9C0E4 (Q9C0E4 648-740): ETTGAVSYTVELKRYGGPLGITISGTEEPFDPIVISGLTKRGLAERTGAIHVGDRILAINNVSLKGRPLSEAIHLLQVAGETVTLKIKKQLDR
Chain of TJP1_2, Q07157 (Q07157 181-274): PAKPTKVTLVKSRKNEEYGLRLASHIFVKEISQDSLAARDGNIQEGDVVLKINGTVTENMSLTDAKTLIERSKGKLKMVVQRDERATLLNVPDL
Chain of ARHGEF12, Q9NZN5-2 (Q9NZN5 other isoform, or with tags, fused parts or gaps): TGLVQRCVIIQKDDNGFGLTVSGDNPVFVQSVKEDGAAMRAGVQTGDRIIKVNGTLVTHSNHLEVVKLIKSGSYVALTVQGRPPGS
Chain of IL16_4, Q14005 (Q14005 1229-1329): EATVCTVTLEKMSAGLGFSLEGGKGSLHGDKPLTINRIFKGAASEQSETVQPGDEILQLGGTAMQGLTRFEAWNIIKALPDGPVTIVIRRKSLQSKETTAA
Chain of Inadl_10, Q8NI35 (Q8NI35 1673-1763): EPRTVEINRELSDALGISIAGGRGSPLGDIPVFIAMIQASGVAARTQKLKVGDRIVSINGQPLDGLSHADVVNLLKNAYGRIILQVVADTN
Chain of GRID2IP_1, A4D2P6 (A4D2P6 1-87): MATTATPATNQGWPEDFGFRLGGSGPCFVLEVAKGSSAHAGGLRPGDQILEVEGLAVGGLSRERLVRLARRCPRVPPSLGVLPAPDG
Chain of LNX1_2, Q8TBB1 (Q8TBB1 371-470): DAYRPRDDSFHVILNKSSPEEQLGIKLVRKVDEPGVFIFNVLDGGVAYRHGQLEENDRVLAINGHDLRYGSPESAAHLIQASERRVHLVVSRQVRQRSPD
Chain of PDZRN4_1, Q6ZMN7 (Q6ZMN7 213-318): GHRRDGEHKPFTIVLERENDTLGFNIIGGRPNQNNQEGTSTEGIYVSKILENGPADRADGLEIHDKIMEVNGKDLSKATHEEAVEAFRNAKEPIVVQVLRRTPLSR
Chain of MAGI1_1, Q96QZ7 (Q96QZ7 1-106): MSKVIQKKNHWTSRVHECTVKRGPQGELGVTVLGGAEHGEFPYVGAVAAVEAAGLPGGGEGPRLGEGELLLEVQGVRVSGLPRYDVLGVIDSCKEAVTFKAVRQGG

## YDEPTTTTSVPL [SARS-Cov2-3a, P0DTC3]
LNX1_2, Q8TBB1; [1]
  pKd: below the threshold
HTRA1, Q92743; [1]
  pKd: below the threshold
DLG2_2, Q15700; [1]
  pKd: below the threshold
SNTG1, Q9NSN8; [1]
  pKd: below the threshold
LIN7C, Q9NUP9; [1]
  pKd: below the threshold
GRID2IP_1, A4D2P6; [1]
  pKd: below the threshold
IL16_4, Q14005; [1]
  pKd: below the threshold
TJP1_2, Q07157; [1]
  pKd: 4.56
NHERF3_1, Q5T2W1; [1]
  pKd: 3.92
GRIP1_3, Q9Y3R0; [1]
  pKd: below the threshold
MAGI1_1, Q96QZ7; [1]
  pKd: below the threshold
GRIP2_6, Q9C0E4; [1]
  pKd: below the threshold
RHPN1, Q8TCX5; [1]
  pKd: below the threshold
SYNJ2BP, P57105; [1]
  pKd: below the threshold
APBA2_1, Q99767; [1]
  pKd: below the threshold
ARHGEF12, Q9NZN5-2; [1]
  pKd: below the threshold
ARHGEF11, O15085; [1]
  pKd: below the threshold
PDZRN4_1, Q6ZMN7; [1]
  pKd: below the threshold
Inadl_10, Q8NI35; [1]
  pKd: below the threshold
GRIP1_2, Q9Y3R0; [1]
  pKd: below the threshold
RADIL, Q96JH8; [1]
  pKd: below the threshold
CASK, O14936; [1]
  pKd: below the threshold
TJP3_3, O95049; [1]
  pKd: below the threshold
Inadl_2, Q8NI35; [1]
  pKd: below the threshold
NHERF3_3, Q5T2W1; [1]
  pKd: below the threshold
DLG2_3, Q15700; [1]
  pKd: below the threshold

## RPGFASESKV [ADRB1, P08588]
LNX1_2, Q8TBB1; [2]
  pKd: below the threshold
HTRA1, Q92743; [2]
  pKd: below the threshold
DLG2_2, Q15700; [2]
  pKd: 3.87
SNTG1, Q9NSN8; [2]
  pKd: 4.59
LIN7C, Q9NUP9; [2]
  pKd: below the threshold
GRID2IP_1, A4D2P6; [2]
  pKd: below the threshold
IL16_4, Q14005; [2]
  pKd: below the threshold
TJP1_2, Q07157; [2]
  pKd: below the threshold
NHERF3_1, Q5T2W1; [2]
  pKd: 4.36
GRIP1_3, Q9Y3R0; [2]
  pKd: below the threshold
MAGI1_1, Q96QZ7; [2]
  pKd: below the threshold
GRIP2_6, Q9C0E4; [2]
  pKd: below the threshold
RHPN1, Q8TCX5; [2]
  pKd: 4.59
SYNJ2BP, P57105; [2]
  pKd: 4.64
APBA2_1, Q99767; [2]
  pKd: below the threshold
ARHGEF12, Q9NZN5-2; [2]
  pKd: 3.52
ARHGEF11, O15085; [2]
  pKd: 4.05
PDZRN4_1, Q6ZMN7; [2]
  pKd: 3.69
Inadl_10, Q8NI35; [2]
  pKd: below the threshold
GRIP1_2, Q9Y3R0; [2]
  pKd: below the threshold
RADIL, Q96JH8; [2]
  pKd: below the threshold
CASK, O14936; [2]
  pKd: below the threshold
TJP3_3, O95049; [2]
  pKd: below the threshold
Inadl_2, Q8NI35; [2]
  pKd: below the threshold
NHERF3_3, Q5T2W1; [2]
  pKd: below the threshold
DLG2_3, Q15700; [2]
  pKd: 3.75
